Test results: paper PMC9218516, “SifR is an Rrf2-family quinone sensor associated with catechol iron uptake in Streptococcus pneumoniae D39” (The Journal of Biological Chemistry, 2022)

Key:
[1] = biological target: Streptococcus pneumoniae SifR C84S (Streptococcus pneumoniae D39); test: SEC
[2] = biological target: Streptococcus pneumoniae SifR (streptococcal IscR-like family transcriptional repressor), WT (Streptococcus pneumoniae D39); test: SEC
CatE (SpCatE, SPD_0072) [3] = biological target: T1, CatE (SpCatE, SPD_0072) (Streptococcus pneumoniae, UniProt A0A0H2ZQ49); test: UV-Vis at […] nm and MS of ring-cleavage product; format: biochemical; conditions: 5 uM Fe(II)-CatE, 100 uM substrate, ambient O2, pH 7.4, room temperature
T1 construct: pHis.parallel1, E. coli BL21(DE3); His6 tag removed with TEV protease; Fe(II)-reconstituted

[4] = biological target: Streptococcus pneumoniae SifR C84S/C102S (Streptococcus pneumoniae D39); test: SEC
SifR (SpSifR, SPD_1448) = biological target: T2, SifR (SpSifR, SPD_1448) (Streptococcus pneumoniae, UniProt A0A0H2ZNG7); test: LC-ESI-MS and tandem LC-MS/MS adduct; fluorescence anisotropy DNA release; format: binding; conditions: covalent at C102, slower than BQ, mainly monoadduct; 20-fold excess, 1 h, pH 7.5
T2 construct: pHis.parallel1, E. coli BL21(DE3); His6 tag removed with TEV protease; homodimer; about 16 kDa protomer (BQ2-SifR expected 16,227 Da)

YhdA (SpYhdA, SPD_1375) = biological target: T3, YhdA (SpYhdA, SPD_1375) (Streptococcus pneumoniae, UniProt A0A0H2ZRU6); test: ferric reductase, ferrozine capture at […] nm; format: biochemical; conditions: 10 uM FMN, 100 uM Fe(III)-NTA, 100 uM NADH or NADPH, pH 7.5, 25 C
T3 construct: pHis.parallel1, E. coli BL21(DE3); His6 tag removed with TEV protease

CatE (SpCatE, SPD_0072) [5] = biological target: T1, CatE (SpCatE, SPD_0072); test: UV-Vis and MS of ring-cleavage product; format: biochemical; conditions: 5 uM Fe(II)-CatE, 100 uM substrate, ambient O2, pH 7.4, room temperature
[6] = biological target: Streptococcus pneumoniae SifR C102S (Streptococcus pneumoniae D39); test: SEC
SifR C84S = SifR C84S (Streptococcus pneumoniae D39, UniProt A0A0H2ZNG7 1-145, C84S); test: fluorescence anisotropy; reduced, 2 mM TCEP; 25 mM Tris-HCl, 150 mM NaCl, 2 mM EDTA, 2 mM TCEP, pH 7.5, 25 C, ~10 nM labeled DNA (Fig S8: 50 mM Tris-HCl, 150 mM NaCl, pH 7.4, 25 C; NMR: 25 mM MES pH 6.5, 150 mM NaCl, 25 C); conditions: protein: recombinant; tags: His6 removed by TEV; tag-free; chain copies: 2; label: 5'-fluorescein; blunt
SifR WT [7] = biological target: T4, SifR WT (Streptococcus pneumoniae D39, UniProt A0A0H2ZNG7 1-145); test: as above; conditions: protein: recombinant; tags: His6 removed by TEV; tag-free; chain copies: 2; label: 5'-fluorescein; blunt
15N-SifR WT = 15N-SifR WT (Streptococcus pneumoniae D39, UniProt A0A0H2ZNG7 1-145); test: NMR (1H,15N-TROSY); reduced; pH 6.5; 25 mM Tris-HCl, 150 mM NaCl, 2 mM EDTA, 2 mM TCEP, pH 7.5, 25 C, ~10 nM labeled DNA (Fig S8: 50 mM Tris-HCl, 150 mM NaCl, pH 7.4, 25 C; NMR: 25 mM MES pH 6.5, 150 mM NaCl, 25 C); conditions: protein: recombinant; tags: His6 removed by TEV; 15N-labeled; chain copies: 2
SifR WT [8] = biological target: T4, SifR WT; test: fluorescence anisotropy competition; reduced, 2 mM TCEP; competitor of F-catE; 25 mM Tris-HCl, 150 mM NaCl, 2 mM EDTA, 2 mM TCEP, pH 7.5, 25 C, ~10 nM labeled DNA (Fig S8: 50 mM Tris-HCl, 150 mM NaCl, pH 7.4, 25 C; NMR: 25 mM MES pH 6.5, 150 mM NaCl, 25 C); conditions: protein: recombinant; tags: His6 removed by TEV; tag-free; chain copies: 2; blunt

In the case of “Streptococcus pneumoniae SifR C84S (natural protein)”, the stoichiometry N [1] is reported as 2.

“Streptococcus pneumoniae SifR (streptococcal IscR-like family transcriptional repressor), WT (natural protein)” showed a stoichiometry N [2] of 2.

Oc1ccccc1O [catechol] was tested, and the “UV-Vis at 375 nm and MS of ring-cleavage product” value (CatE (SpCatE, SPD_0072) [3]) was “we first monitored its activity using UV–Vis spectroscopy against freshly prepared catechol”.

Molecule “Streptococcus pneumoniae SifR C84S/C102S (natural protein)” has a stoichiometry N [4] of 2.

In the case of CN1CC(O)C2=CC(=O)C(=O)C=C21 (stereo not drawn) [Adc, adrenochrome], the “LC-ESI-MS and tandem LC-MS/MS adduct; fluorescence anisotropy DNA release” value (SifR (SpSifR, SPD_1448)) is reported as “Adc reacts more slowly to yield some monoadducted product”.

In the case of Cc1cc2nc3c(=O)[nH]c(=O)nc-3n(C[C@H](O)[C@H](O)[C@H](O)COP(=O)(O)O)c2cc1C [FMN], the “ferric reductase, ferrozine capture at 562 nm” value (YhdA (SpYhdA, SPD_1375)) is reported as “SpYhdA has significant activity and prefers FMN over FAD”.

NC[C@H](O)c1ccc(O)c(O)c1 [NE, norepinephrine] was tested, and the “UV-Vis and MS of ring-cleavage product” value (CatE (SpCatE, SPD_0072) [5]) was “SpCatE can utilize each of these compounds as substrates”.

For “Streptococcus pneumoniae SifR C102S (natural protein)”, the stoichiometry N [6] was 2.

B1: F-catE O/P (dsDNA)
DNA 1: TATAGTTGTAATAATAATAATTACAACGAG
DNA 2: CTCGTTGTAATTATTATTATTACAACTATA
modifications: fluorescein-dT at 5' position 1 of strand 1
In the case of B1, the Ka (SifR C84S) is reported as 4.8 ± 1.5 10^8 M-1 and the Ka (SifR WT [7]) is reported as 1 ± 0.2 10^8 M-1.

B2: fre operator 23 bp (dsDNA)
DNA 1: AATGTAACAAATTTATTTACAAC
DNA 2: GTTGTAAATAAATTTGTTACATT
B2: binds (15N-SifR WT).

B3: ywnB O/P (dsDNA)
DNA 1: CAATTGCTGTAACTAAAATAATTACAACAAG
DNA 2: CTTGTTGTAATTATTTTAGTTACAGCAATTG
In the case of B3, the Ka (SifR WT [8]) is reported as 3.2 ± 0.4 10^8 M-1.

B4: yhdA O/P (dsDNA)
DNA 1: GTTTTGTTGTAATATATTTTATAACAACGAG
DNA 2: CTCGTTGTTATAAAATATATTACAACAAAAC
In the case of B4, the Ka (SifR WT [8]) is reported as 0.23 ± 0.04 10^8 M-1.

B5: fre O/P (dsDNA)
DNA 1: GATAAAATGTAACAAATTTATTTACAACAAATC
DNA 2: GATTTGTTGTAAATAAATTTGTTACATTTTATC
B5 was tested, and the Ka (SifR WT [8]) was 0.25 ± 0.05 10^8 M-1.

B6: trxB O/P (dsDNA)
DNA 1: GAAAGAGTTAGAATAAAGATAGTTACAACAAG
DNA 2: CTTGTTGTAACTATCTTTATTCTAACTCTTTC
B6 was tested, and the Ka (SifR WT [8]) was 0.13 ± 0.04 10^8 M-1.
